Laboratory results: the supplement of paper PMC10567573

B1: ISL2 (parent)
chain: HYPFLGAMGDHSKKKPGTAMCVGC
B2: CDS2 (parent)
chain: LIVVTQSHLVIHNLFEGMIWFIVP
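Note: lentivirally expressed fusions sorted by FACS into six bins by GFP to DsRed ratio, PSI derived from sequencing read proportions per bin multiplied by bin number.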

Variants of: B1
Test: protein stability index of a GFP-peptide fusion (GPS, HEK-293T) (PSI 1-6); higher = more stable
Settings: c terminus: a fixed tail appended
With HYPFLGAMGDHSKKKPGTAMCVGE [C24E] the protein stability index was 4.5. HYPFLGAMGDHSKKKLGTAMCVGC [P16L] gave a protein stability index of 2.17. With HYPFLGAMGDHSKKKSGTAMCVGC [P16S] the protein stability index was 2.69. For HYPFLGAMGDHSKKKKGTAMCVGC [P16K], the protein stability index was 2.24. In the case of HYPFLGAMGDHSKKKRGTAMCVGC [P16R], the protein stability index is reported as 1.99. HYPFLGAMGDHSKKKGGTAMCVGC [P16G] gave a protein stability index of 2.19. HYPFLGAMGDHSKKKHGTAMCVGC [P16H] showed a protein stability index of 2.61. With HYPFLGAMGDHSKKKNGTAMCVGC [P16N] the protein stability index was 2.7. For HYPFLGAMGDHSKKKQGTAMCVGC [P16Q], the protein stability index was 2.44. HYPFLGAMGDHSKKKCGTAMCVGC [P16C] showed a protein stability index of 3.12. HYPFLGAMGDHSKKKIGTAMCVGC [P16I] gave a protein stability index of 1.67. With HYPFLGAMGDHSKKKMGTAMCVGC [P16M] the protein stability index was 2.45. Variant HYPFLGAMGDHSKKKVGTAMCVGC [P16V] has a protein stability index of 2.06. HYPFLGAMGDHSKKKAGTAMCVGC [P16A] showed a protein stability index of 2.52. Work on HYPFLGAMGDHSKKKTGTAMCVGC [P16T] yielded a protein stability index of 2.37. For HYPFLGAMGDHSKKKWGTAMCVGC [P16W], the protein stability index was 2.41. With HYPFLGAMGDHSKKKEGTAMCVGC [P16E] the protein stability index was 3.07. Work on HYPFLGAMGDHSKKKDGTAMCVGC [P16D] yielded a protein stability index of 3.02. HYPFLGAMGDHSKKKYGTAMCVGC [P16Y] showed a protein stability index of 2.42. In the case of HYPFLGAMGDHSKKKFGTAMCVGC [P16F], the protein stability index is reported as 1.62. HYPFLGAMGDHSKKKPGTGMCVGC [A19G] showed a protein stability index of 2.32. Variant HYPFLGAMGDHSKKKPGTYMCVGC [A19Y] has a protein stability index of 2.12. HYPFLGAMGDHSKKKPGTPMCVGC [A19P] gave a protein stability index of 2.86. HYPFLGAMGDHSKKKPGTQMCVGC [A19Q] showed a protein stability index of 2.91. HYPFLGAMGDHSKKKPGTLMCVGC [A19L] gave a protein stability index of 2.56. HYPFLGAMGDHSKKKPGTHMCVGC [A19H] gave a protein stability index of 3.2. In the case of HYPFLGAMGDHSKKKPGTFMCVGC [A19F], the protein stability index is reported as 1.63. With HYPFLGAMGDHSKKKPGTMMCVGC [A19M] the protein stability index was 2.28. With HYPFLGAMGDHSKKKPGTDMCVGC [A19D] the protein stability index was 3.66. With HYPFLGAMGDHSKKKPGTWMCVGC [A19W] the protein stability index was 1.3. HYPFLGAMGDHSKKKPGTEMCVGC [A19E] gave a protein stability index of 3.29. HYPFLGAMGDHSKKKPGTNMCVGC [A19N] gave a protein stability index of 2.44. With HYPFLGAMGDHSKKKPGTKMCVGC [A19K] the protein stability index was 2.8. Variant HYPFLGAMGDHSKKKPGTCMCVGC [A19C] has a protein stability index of 4.28. HYPFLGAMGDHSKKKPGTIMCVGC [A19I] gave a protein stability index of 2.16. With HYPFLGAMGDHSKKKPGTRMCVGC [A19R] the protein stability index was 2.06. In the case of HYPFLGAMGDHSKKKPGTVMCVGC [A19V], the protein stability index is reported as 2.37. In the case of HYPFLGAMGDHSKKKPGTTMCVGC [A19T], the protein stability index is reported as 2.76. With HYPFLGAMGDHSKKKPGTSMCVGC [A19S] the protein stability index was 3.72. In the case of HYPFLGAMGDHSKKKPGDAMCVGC [T18D], the protein stability index is reported as 3.4. Work on HYPFLGAMGDHSKKKPGYAMCVGC [T18Y] yielded a protein stability index of 2.15. Variant HYPFLGAMGDHSKKKPGVAMCVGC [T18V] has a protein stability index of 2.25. With HYPFLGAMGDHSKKKPGIAMCVGC [T18I] the protein stability index was 2. HYPFLGAMGDHSKKKPGFAMCVGC [T18F] gave a protein stability index of 2. For HYPFLGAMGDHSKKKPGEAMCVGC [T18E], the protein stability index was 2.94. HYPFLGAMGDHSKKKPGPAMCVGC [T18P] gave a protein stability index of 2.65. Work on HYPFLGAMGDHSKKKPGRAMCVGC [T18R] yielded a protein stability index of 1.81. Variant HYPFLGAMGDHSKKKPGLAMCVGC [T18L] has a protein stability index of 2. Variant HYPFLGAMGDHSKKKPGWAMCVGC [T18W] has a protein stability index of 1.47. Variant HYPFLGAMGDHSKKKPGQAMCVGC [T18Q] has a protein stability index of 2.67. In the case of HYPFLGAMGDHSKKKPGHAMCVGC [T18H], the protein stability index is reported as 2.59. In the case of HYPFLGAMGDHSKKKPGNAMCVGC [T18N], the protein stability index is reported as 2.71. HYPFLGAMGDHSKKKPGSAMCVGC [T18S] showed a protein stability index of 2.76. In the case of HYPFLGAMGDHSKKKPGCAMCVGC [T18C], the protein stability index is reported as 3.02. HYPFLGAMGDHSKKKPGKAMCVGC [T18K] showed a protein stability index of 2.71. Variant HYPFLGAMGDHSKKKPGGAMCVGC [T18G] has a protein stability index of 2.5. Work on HYPFLGAMGDHSKKKPGAAMCVGC [T18A] yielded a protein stability index of 2.62. In the case of HYPFLGAMGDHSKKKPGMAMCVGC [T18M], the protein stability index is reported as 2.67. HYPFLGAMGDHSKKKPGTAMIVGC [C21I] gave a protein stability index of 2.69. HYPFLGAMGDHSKKKPGTAMKVGC [C21K] showed a protein stability index of 3.81. With HYPFLGAMGDHSKKKPGTAMPVGC [C21P] the protein stability index was 3.59. Work on HYPFLGAMGDHSKKKPGTAMAVGC [C21A] yielded a protein stability index of 2.94. Variant HYPFLGAMGDHSKKKPGTAMRVGC [C21R] has a protein stability index of 2.79. Work on HYPFLGAMGDHSKKKPGTAMLVGC [C21L] yielded a protein stability index of 3.31. With HYPFLGAMGDHSKKKPGTAMGVGC [C21G] the protein stability index was 3.12. HYPFLGAMGDHSKKKPGTAMTVGC [C21T] gave a protein stability index of 3.71. Work on HYPFLGAMGDHSKKKPGTAMVVGC [C21V] yielded a protein stability index of 2.72. With HYPFLGAMGDHSKKKPGTAMNVGC [C21N] the protein stability index was 3.29. Variant HYPFLGAMGDHSKKKPGTAMQVGC [C21Q] has a protein stability index of 3.43. With HYPFLGAMGDHSKKKPGTAMEVGC [C21E] the protein stability index was 3.39. For HYPFLGAMGDHSKKKPGTAMSVGC [C21S], the protein stability index was 3.37. With HYPFLGAMGDHSKKKPGTAMDVGC [C21D] the protein stability index was 2.96. Variant HYPFLGAMGDHSKKKPGTAMWVGC [C21W] has a protein stability index of 1.91. In the case of HYPFLGAMGDHSKKKPGTAMHVGC [C21H], the protein stability index is reported as 3.04. Variant HYPFLGAMGDHSKKKPGTAMMVGC [C21M] has a protein stability index of 2.28. In the case of HYPFLGAMGDHSKKKPGTAMYVGC [C21Y], the protein stability index is reported as 2.97. In the case of HYPFLGAMGDHSKKKPGTAMFVGC [C21F], the protein stability index is reported as 2.71.

Variants of: B2
Test: as above
Settings: c terminus: a fixed tail appended
With LFVVTQSHLVIHNLFEGMIWFIVP [I2F] the protein stability index was 1.75. LCVVTQSHLVIHNLFEGMIWFIVP [I2C] showed a protein stability index of 1.83. LDVVTQSHLVIHNLFEGMIWFIVP [I2D] gave a protein stability index of 1.02. With IIVVTQSHLVIHNLFEGMIWFIVP [L1I] the protein stability index was 3.5. Variant AIVVTQSHLVIHNLFEGMIWFIVP [L1A] has a protein stability index of 3.25. In the case of YIVVTQSHLVIHNLFEGMIWFIVP [L1Y], the protein stability index is reported as 3.07. For FIVVTQSHLVIHNLFEGMIWFIVP [L1F], the protein stability index was 3.17. Work on VIVVTQSHLVIHNLFEGMIWFIVP [L1V] yielded a protein stability index of 3.56. Work on TIVVTQSHLVIHNLFEGMIWFIVP [L1T] yielded a protein stability index of 4.15. In the case of DIVVTQSHLVIHNLFEGMIWFIVP [L1D], the protein stability index is reported as 3.86. Work on SIVVTQSHLVIHNLFEGMIWFIVP [L1S] yielded a protein stability index of 3.83. MIVVTQSHLVIHNLFEGMIWFIVP [L1M] gave a protein stability index of 3.16. Work on HIVVTQSHLVIHNLFEGMIWFIVP [L1H] yielded a protein stability index of 3.11. In the case of NIVVTQSHLVIHNLFEGMIWFIVP [L1N], the protein stability index is reported as 2.67. In the case of PIVVTQSHLVIHNLFEGMIWFIVP [L1P], the protein stability index is reported as 3.61. Variant QIVVTQSHLVIHNLFEGMIWFIVP [L1Q] has a protein stability index of 4.19. Variant RIVVTQSHLVIHNLFEGMIWFIVP [L1R] has a protein stability index of 3.84.
